From the domain aggregation screens of Martell et al. (2025)

Assay: soluble fraction after stress (log2 fold change); higher = more stays soluble; pooled small domains, quantitative proteomics
Conditions: stress: pH 4
Outline: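 Following acid stress at pH 4, the amount of each small protein domain still soluble was measured in pooled custom libraries by high-throughput quantitative proteomics. Its fold change, on a log2 scale, is higher when more of the domain stayed soluble. This fold change is taken as a measure of aggregation propensity.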

Sequence	soluble fraction (log2)
HMHLKDEHGLTPKQRAFADEYVITLNATVSYKKIYSVKRDSVASTNGSRLLGNANVKAYIDKRLEE	0.172
HMHLKRQEAINLGAYLLGAELRIHRLSLEELGSERIDEMLAAINYKTLDDLLADIGLGNRPARFVARQLG	-1.65
HMHLLGASIAAYRKKAGMTQEDLGRALFVSGQAVSRWERGGTPDSDMLPKIADVLGISLDTLFGRS	-0.269
HMHLRYTYIYDNENRVTSKEASKWDSTQEAWVPYFKMNVSYVNNEVELSYARWNSKSNAYDSSIKKTI	-0.66
HMHLTNIPKGFTPSFDTKQWIVEEFGERYNYDNELKIFINHYRASGTTKSDWQYAFRSWLLRAKKFT	-0.448
HMHLTRYLHTMIRAANLDDTLDFFVEKLGLIEAYRYSNEAGRFTLVFLSAPDDLESAQSRQAPLVEITYN	-0.329
HMHLYDMYNLTEKEISIIRLIANGLNNKEISQELFLSEGTIKNNITNILAKLELRDRTQLAIFAFKNKIVI	-0.647
HMHMELHEKIRLARELNKWSQEEVAEKLEMSPSGYAKIERGETALNIPRLEQIAEIFNIDIWELVKA	-1.48
HMHMHTADDFKQLAKHTSNGRLRTRYLALYHFKKGETRTQIAAYLGVARGSVNTWVSNYLAYGLEGLQS	-0.0479
HMHMIDDYLARIGQLIRDARQHRGWTQVQLAEALGTSQSAVNRIERGNQNISLEMIARIGEALGSEIVSLG	-0.64
HMHMKTIEWDSLVLIMYKDMKYLKRINEGQSFHGKGGMLNYADLIGKTYGIRFGQYEIFEPSLEDIVMYG	-0.569
HMHMSKKLADSISALRKKNGLSQEQLAEKIGISRQTVSNWERGIATPDVETLNLISKLFDEDLSVMING	0.043
HMHNISQTGRRIAGMTQERWAEALDISVESVRLYESGRGMPSDDVATRMVEVSGAPVLGYWH	-1.08
HMHNPSYDMSKDVDILVMKFRDYNNLTDDEARFLLDKAKDAYYNTGKEILSDNEYDTLEKSLGQE	-1.17
HMHPEPDPVLFIDGKEYPYDKLSELDETRVQSMTILPKKSAVKKYGDKYANRSIMEITLKKEN	0.22
HMHPNPLTEQEIAVLKGIAQGLSNQEIADQLYLSNGTVRNYVTNILSKLDAGNRTEAANIAKESGW	-0.279
HMHPSNQELTKVLAQGSELVLAQKYIEASQIFTRVIEIDQTWAEAWNKRATVFYLLQNYEASQKDIDEV	-0.135
HMHQKELLNLSYKEAKRYILDDFERVFFTNLLRKTGGNVSRAAQLAQVHRKNLYVKLTELGIDPRQFG	-0.585
HMHQLQLDSRSRLHMTGVIEVESFDEATIVLTTTRGTLIVRGENLHLQLLRLDGGEVLVDGTVDSLSYE	-1.22
HMHQPPDLDDFEAFVGRVKPALLQALVATYGPVDGREATVDALSWAWEHWDRLADVDHPVGYLYRV	-0.189
HMHRFAVLDTVREVAAGGVAATLSIGVGRDADSFDALFKNASMALEMALSRGGDQAVVKDRMNFQFYGG	-0.0192
HMHRGEIVDGVIASVNPRSILIDIGGKSDALVHPRELERMSDEDLRSLKPGQDVSVYVIETDSDGTMLVSL	-0.86
HMHSEISGGSKDPFRFMPHLGVEDIHAETDRLSGSGVEFIREPDQESWGGWVATFKDPDGNILQLLQL	-0.0468

Sequence	soluble fraction (log2)
HMHSQVFTDPDKAKNAVVKLGAPLVVKADGLALGKGVIIAQNPQAAKEAVASVGSSGISSISVT	0.22
HMHTDDDGITEAFPHLRLLSLGEDILDLLEKSRFIRKLNNELVYYVVDFREQNSIDGRRYHPSIYHNL	-1.31
HMHTGEVVNGKVIDVKEDQIILNVGFKSDGIITRSEYSNDNSLDLRTVVNVGDDMEAKVLKINDGEGQVLL	-0.343
HMHTGLAELTDRERDVLRLIATGMTNAAIGSALAYSPSTIRADTVSIYRKLEVRGRAEAAAVAVAAGLTQP	0.123
HMHTPSGALLSAIEKEWGSFDNFKKEFTTAATSLFGSGWVWLAKDKKGKLYILSENNAGNPITKGYTPILG	-0.432
HMHVLNEEYYNRIKAIQFTMNHDDGNSLNDIEKSDIILLGVSRTSKTPTSIYLANRGLRTSNIPLINEK	-0.316
HMHVSLADQAYKTIRTNILNLTYPPGTQLTEAKLASDLNMSRSPVRTAIKMLQADGLLVSDYYKSMTVK	≥ 0.43
HMHVYSYPAAVKIKNAVGREMMVTLLGRSGTHVQFARQDGEEFVYPISSLDLAAQTLISKYPNDGIKN	0.0689
HMIAALEGKQAMVLDQVSLHHGQVKLGGEVWTARPLNDQDVYEPGDRVTVMRIDGATAVVWRN	-0.0548
HMIAASPVGGIDRVLELLDARGQRVAWIEASGTEGGQRLRLGWIDAQGAERHGAWVPWSADDLLLYA	-0.547
HMIAASQVLRDARQRSRLTQAELGRRADVPQSVISAYESARREPSVDMLARLVAAAGFDLRIGLTP	-0.377
HMIADPLVINKLMDSMALAINDYNPDSVEPVLDELRQYFSENQLRELSKAMDDFDFDEALNALTLLRT	-0.619
HMIALKNLREEKRMTQAELSKDLEISPSAIGMYEQGRRVPDVSTLKKISAYFNVSIDYLLGNSTSKDI	-0.0244
HMIALLRLGTAPDIKAQAPLATILARHNGEMSAKDLWQRFGGEIDTFYAQLKTEVAHGWILEPT	0.0698
HMIAVLKQGVSKQQVENLITWFRSRGLDVHISEGKFQTIIGLIGDTSKVDIDLLNGLEIIESVKRI	-0.832
HMIAVSQEQIKQIIVDDPSFHDANGKFSQALLTQYLNQRRMSEDQFVEEIRDQFLFQNLQNLVQNG	-0.623
HMIDAAHLEKAILSLPEGARAVFVLIETEGFAHREVAELLGISEGTSKSQLNYAKKRLREILV	-0.0621
HMIDAKTTLQELTQKSGKKPEYRLIKIEGPDHLRRFTVEVFIDGQSMGTGTGHSKKEAEQNAANFALKNLQ	≥ 0.43
HMIDEQDLKKYILISTSVEELTDYLGATDRMLYDYLYSLKHVGQYWQLNERFLLDLYKLPNLVIVDKEDLE	-0.351
HMIDFDEQGNLWVHEMGPRHGDELNLIEKARNYGYPTVSQGDHYSGVKISNHEDIPIFKSPEKAWVPAISP	-0.373
HMIDFDHADIERLWNSIIHYVPERQKLDFAIDFIKSLEDIGVEHDVLRGSAELDPKLEEAVNTVFE	-0.315
HMIDIIEYIISEESKGLRADQGIALQNPQYSRSLIQKWIKKGSVLVNNKIIRTKEILLEGDKISITPEENI	-2.29
HMIDKIRYPELIMKLAHQQGGTIKRRDVEQLLHLQTKQAYRELSKLVDAGELVSVGRGPGAHYEVS	-0.0885

Sequence	soluble fraction (log2)
HMIDQNEDLLSGYIDEVLSQNPDKVNEYLKGKSGLIGFFMGQIKQKSATALDAALLKSQLETALEKLRIK	-0.00948
HMIDQSVVVQYLSKLTNTPYLKTREITMGEPYMQFERGEIKFQEYVEDIRALLPGGDRIDADRLRDIWMNS	-0.721
HMIDRADLWEALRKLPEDTLKLFSLHFEKGMTHDEISKHTDIPVGTVKTKLRRGLIEARKLAREF	-0.394
HMIDTPQELARLLRLLDEQNFEAEILFHKLRPDLLHLWSKEHVTRIAEALDAFDYQMALTLLNASP	-2.15
HMIDVNLVQRGKTLHLRRRVPMRYSSVERREYVSISLKTDSEAEARRKAGAAWDQMIAAWEARLA	-0.12
HMIDYTDTSAVKDSAAVAGRVREMINEGVPIADVNAFIRSASENGLISDDSARRLRYMNDSR	≥ 0.43
HMIEDMTINIEERLSLNGDIKKSEYILQYIKPDFIRKVILSPELNKGEIYIYDSKKKVMYLPLFDQVSEEI	-1.09
HMIEINNLEDLKLMKEFILKNGKYGFGVFVGGKYIGLSDIGSVNSFKDTLGLPVVSLGNDDFKRFTEAH	-0.653
HMIEQEQAFLEQVLKKYSQEELVLTVGSRTLVKYSAGQLERLLEHYPHVRLASSPVNGEAGFLLSRG	-0.784
HMIEQIELEARVPDELGGQRLDQVAAQMFDDFSRSRLTGWIRDGSLTADGQQLRPRDIVYGGTLLQLKAEQ	-0.151
HMIESFQNGLVEHDQFTRPNPWVTPNFSKIEVPSILLSGKHADIDLWKHQNSIENTKKNRPDLFKNYLKKN	-0.357
HMIEYILDYLANRGVYAASQGEQQQMEDGIARYLQENGLEDGNTGAYYQKYVSNHLQQISASDLKAYFLN	-1.49
HMIEYYDDEELDVFKGRQSDNYTNKEIEQFAEVLHTMRQDEVKGWNRSLILRSINLPDSLKDEVIMLI	-2.53
HMIFDPTTLPEKQLLVYGIISSHPGLNAKQISEMLTLKKSSIETAIKGLRKKEIIEYEGTTRNGG	-0.17
HMIFEEDILKEFRGSLIFITHDRRFLDNIATRIIELDRGKLLSFPGNFSAYKKAKNEQLANEAVENA	-1.17
HMIFEETVFKDIAFGPKNMGLSEAEIKRRVYETAENIGLSQELMERSPFELSGGQKRRVAIAGVMAMEP	-0.878
HMIFELDSDRASAGNTIGKLVSKWNNTEVASVQFVSGDDTSNKDNASIYLNTRSGGSGNLVRLRITK	0.108
HMIFRPALITDLDAVERHYTELLTREAETGRSSTNWSLGVYPTRQTATAAQAAGTLWVLEREGQVVASVI	-0.552
HMIFTPNGDRVNDVFEIEMGVKLEFQIIILNQQNQTVFKSADPDFKWDGTMLNGEPAPSGTYLYYFSAKD	0.22
HMIGERIKRARAAAGLSMQALGKQVGISANMVKKYEHDQSMPSSGVLLKLATALSVRTEYFFRPA	-0.0616
HMIGGASVFKQFLPLADKMLLTLIHSEFEGDTYFPVFSEKEWLLQESSSLLSATGYQLSFQTYIR	0.013
HMIGGEDEILKVVLEVLEEKPEAIEQYKNGRTNIVDFLVGQVMKKTRGQANPATTREFMIREIEK	-0.999
